The subject of one assay is HEK293 (293) cells. Briefly: Cell viability (cell kill) assay. The format is cell-based. The following applies: 293; Table 19. The text has this: (§1) PRLR-overexpressing cells, including HEK293, PC3, MCF7 and NCI-N87, were generated to assess the ability of anti-PRLR conjugated antibodies to reduce cell viability. For comparative purposes, PC3 and T47D cells with overexpressed ErbB2 were also generated, as well as an MCF7 cell line over-expressing both hPRLR and hErbB2. Briefly, Lipofectamine® 2000-mediated transfection methodology was utilized to generate HEK293 cells expressing human PRLR (HEK293/hPRLR) or human ErbB2 (HEK293/hErbB2). Lipofectamine LTX with Plus Reagent was used to generate PC3 cells expressing human PRLR (PC3/hPRLR) or human ErbB2 (PC3/hErbB2). Lentiviral-mediated transduction was utilized to generate MCF7 cells expressing human PRLR (MCF7/hPRLR), NCI-N87 cells expressing human PRLR (NCI-N87/hPRLR), T47D cells over-expressing human ErbB2 (T47D/hErbB2), and MCF7 cells expressing both human PRLR and human ErbB2 (MCF7/hPRLR/hErbB2). All lines were selected for at least two weeks in complete growth media plus appropriate selection reagents. Stably expressing populations were enriched for PRLR expression via FACS using the anti PRLR antibody Control I.
(§2) Next, the ability of anti-PRLR-DM1 antibody-drug conjugates (i.e., anti-PRLR antibodies conjugated to DM1 via a non-cleavable linker [SMCC]) to reduce cell viability was determined using in vitro cell based assays. Cells were seeded in PDL-coated 96 well plates at 1500 to 10000 cells per well in complete growth media and allowed to grow overnight. For cell viability curves, ADCs or free DM1 (as the methyl disulfide derivative DM1-SMe) were added to the cells at final concentrations ranging from 500 nM to 5 pM and incubated for 3 days. The 293, PC3 and T47D cells were incubated with CCK8 (Dojindo, Rockville, Md.) for the final 1-3 hours and the absorbance at 450 nm (OD450) was determined on a Flexstation3 (Molecular Devices, Sunnyvale, Calif.). MCF7 cells were treated with Hoechst 33342 nuclear stain while being fixed with 4% formaldehyde. Images were acquired on the ImageXpress micro XL (Molecular Devices, Sunnyvale, Calif.) and nuclear counts were determined via Columbus image analysis software (Perkin Elmer, Shelton, Conn.). Background OD450 values (PC3, 293, and T47D) or nuclear counts (MCF7) from digitonin (40 nM) treated cells was subtracted from all wells and viability was expressed as a percentage of the untreated controls. IC50 values were determined from a four-parameter logistic equation over a 10-point response curve (GraphPad Prism).

For another assay, the system named is PC3 cells. Briefly: Cell viability (cell kill) assay. It is filed as cell-based. Particulars: Table 18.
Excerpt: as §1, §2
(§3) Finally, the potency of anti-PRLR antibodies conjugated to DM1 via the non-cleavable linker SMCC was compared to the cell killing potency of anti-PRLR antibodies conjugated to MMAE via the cleavable linker: mc-vc-PAB (available from Concortis, San Diego, Calif.). Cells used in this experiment were PC3, PC3/hPRLR, MCF7/ATCC and MCF7/PRLR.

For another assay, the system named is PC3/hPRLR cells. Briefly: Cell viability (cell kill) assay. The format is cell-based, human. Particulars: PC3/hPRLR; Table 18.
Excerpt: as §1, §2, §3

Another assay concerns MCF7 (MCF7/ATCC) cells. Kind of assay: Cell viability (cell kill) assay, nuclear counts. The format is cell-based. The following applies: MCF7/ATCC.
Excerpt: as §1, §2, §3
(§4) Additional toxins (DM4, MeNHC3-May, and MMD) conjugated to anti-PRLR antibodies were also tested in T47D and MCF7/hPRLR cell lines, and results are summarized in Tables 19 (293 and T47D cell killing) and 20 (MCF7/ATCC and MCF7/PRLR cell killing). (ND=not detected).

In assay [1] the test system is MCF7/hPRLR (MCF7/PRLR) cells. Briefly: Cell viability (cell kill) assay, nuclear counts. It is filed as cell-based, human.
Excerpt: as §1, §2, §3, §4

The next assay concerns T47D cells. Kind of assay: Cell viability (cell kill) assay. The format is cell-based. Particulars: T47D, Table 19; for IC50: read-out: IC50. On the procedure:
as §2
Additionally, the impact of the PRLR ligand, PRL, on PRLR-SMCC-DM1 cell kill in T47D cells was assessed. T47D cells were incubated simultaneously with PRL (15 nM) and either a non-blocking anti PRLR antibody (H1H6782P) or a receptor blocking antibody (H1H6958N2).
as §4

By IC50 is commonly meant the concentration at which inhibition is half-maximal.

B1: H1H6953N-SMCC-DM1 (conjugate)
VH: EVQLLESGGGLVQPGGTLRLSCAASGFTFSAYAMSWVRQAPGKGLEWVSSINVRAGDTYYADSVKGRFTISRDNSKNTLFLLMNSLRAEDTAAYYCAKARYSSNWGFDFWGQGTLVTVSS
VL: DIVMTQSPDSLTVSLGARTTINCQSSQTILHSSNNHNYLAWYQQKPGLPPKLLIYWSSTRESGVPDRFSGSGSGTDFTLTISSLQAEDVAIYYCQQYSNTPYTFGQGTKLEIN
Take B1: the “% Kill” value was 90% with HEK293 (293) cells; 83% with PC3/hPRLR cells; 70% in the assay with MCF7 (MCF7/ATCC) cells (Table 18); 70% in the assay on MCF7 (MCF7/ATCC) cells (Table 20); 80% in assay [1] (Table 18); 80% in assay [1] (Table 20). For the same molecule, in the assay on T47D cells, the “% Kill” value is 100%. Further, the concentration for half-maximal inhibition (IC50) with HEK293 (293) cells turned out to be 100 nM; in the assay on PC3 cells it was 90 nM; in the assay on PC3/hPRLR cells, 0.4 nM; in the assay with MCF7 (MCF7/ATCC) cells (Table 18), 80 nM; in the assay on MCF7 (MCF7/ATCC) cells (Table 20), 90 nM; in assay [1] (Table 18), 0.1 nM. Also, the results for the IC50 (in assay [1] (Table 20); with T47D cells) were 0.3 nM and 1.5 nM, respectively.

B2: H1H6958N2-mc-VC-PAB-MMAE (conjugate)
VH: QVQLVESGGGVVQPGRSLRLSCGASGFTFRNYGMQWVRQGPGKGLEWVTLISFDGNDKYYADSVKGRFTISRDNSKNTLFLQMNSLRTEDTAVYYCARGGDFDYWGQGTLVTVSS
VL: DIQMTQSPSSLSASVGDRVTITCRASQDIRKDLGWYQQKPGKAPKRLIYAASSLHSGVPSRFSGSGSGTEFTLTISSLQPEDFATYYCLQHNSYPMYTFGQGTKLEIK
On to B2, for which the IC50 was 100 nM in the assay with PC3 cells; 0.5 nM with PC3/hPRLR cells; 150 nM in the assay with MCF7 (MCF7/ATCC) cells (Table 18); 150 nM in the assay on MCF7 (MCF7/ATCC) cells (Table 20); 0.2 nM in assay [1] (Table 18); 0.2 nM in assay [1] (Table 20). Also, in the assay on T47D cells, the IC50 stood at 1 nM. Further, the “% Kill” value in the assay with PC3/hPRLR cells came to 82%; in the assay on MCF7 (MCF7/ATCC) cells (Table 18) it was 53%; in the assay on MCF7 (MCF7/ATCC) cells (Table 20) it was 50%; in assay [1] (Table 18) it was 88%; in assay [1] (Table 20), 90%; in the assay with T47D cells it was 90%.

B3: H1H6765P-mc-VC-PAB-MMAE (conjugate)
VH: EVQLVESGGGVVRPGGSLRLSCVGSGFSFDDHGMNWVRQGPGKGLEWVSGFNWNGGSTNYAESVKGRFTISRDNARNSLFLQMNSLRAEDTALYYCVRGRSGWFNDAFDVWGPGTMVTVSS
VL: EIVLTQSPGTLSLSPGERATLSCRASQTINSNYLAWYRQKPGQTPRLLIYGTSSRATGIPDRFSGSGSGTDFSLTISRLEPEDFAVFYCQQYAGLPTFGPGTKVDIK
For B3, the half-maximal inhibitory concentration (IC50) with PC3 cells stood at 150 nM; in the assay with PC3/hPRLR cells, 0.4 nM; in the assay with MCF7 (MCF7/ATCC) cells (Table 18), 150 nM; in the assay with MCF7 (MCF7/ATCC) cells (Table 20) it was 150 nM; in assay [1] (Table 18), 0.2 nM; in assay [1] (Table 20), 0.2 nM. The IC50 with T47D cells stood at 1 nM. The “% Kill” value with PC3/hPRLR cells amounted to 85%; with MCF7 (MCF7/ATCC) cells (Table 18), 38%; with MCF7 (MCF7/ATCC) cells (Table 20), 40%; in assay [1] (Table 18), 86%; in assay [1] (Table 20), 90%; with T47D cells, 90%.

The record behind these values is patent publication US9688764B2, “Methods of treating breast cancer by administering anti-human prolactin receptor (PRLR) antibodies” (REGENERON PHARMACEUTICALS, INC., priority 2013, dated 2017).
